Experiments:
[1] = biological target: human CXCL12 (soluble ligand in the cell migration assays) (human, UniProt P48061-2 22-89, limits assumed); experiment: cell-based or functional assay
[2] = biological target: T1, biotinylated CXCL12 (synthesised 68 amino acid CXCL12) (human, UniProt P48061 22-89, biotinylated (site not stated)); experiment: SPR (Biacore T100), Fab over biotinylated CXCL12 immobilised on a streptavidin chip, 1:1 Langmuir binding model [Continued) (panel B table]
T1 construct: also called SDF-1
T1 sequence (P48061 22-89 limits assumed): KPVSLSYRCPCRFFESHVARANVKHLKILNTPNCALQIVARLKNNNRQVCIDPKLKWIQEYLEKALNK
Protocol: (§1) FIG. 3. Affinity measurement of anti-CXCL12 antibodies using SPR A) Sensograms of multiple concentrations of lead and parental anti-CXCL12 Fabs binding to biotinylated CXCL12 immobilised on a streptavidin chip (carboxymethylated dextran matrix pre-immobilised with streptavidin). […] The equilibrium dissociation constant (KD) of the parent clone 093_2D06 was calculated using steady state binding model due to its very fast off-rate. […] The binding constants of these antibodies were determined using two-state binding model. Biacore T100 evaluation software was used for all calculations.
(§2) The lead anti-CXCL12 antibodies and their parent clones were subjected to a full kinetic analysis to determine the improvement in binding constants after affinity maturation. The binding of the Fab antibodies to biotinylated CXCL12 immobilised on a streptavidin chip was analysed using SPR (FIG. 3). Equilibrium dissociation constants (KD) of these antibodies were determined using a binding model appropriate for each binding interaction (FIGS. 3B and C). […] Such binding profiles are generally associated with binding interactions that involve antibody (or any other analyte) induced conformational change of the ligand resulting in a two-step binding. […]

[3] = biological target: T1, biotinylated CXCL12 (synthesised 68 …); experiment: SPR: Fab over biotinylated CXCL12 on a streptavidin chip
Protocol: as §1, §2

[4] = biological target: T1, biotinylated CXCL12 (synthesised 68 …); experiment: SPR (Biacore T100): Fab over biotinylated CXCL12 on a streptavidin chip, 1:1 Langmuir model; SPR kinetic analysis, Fab over biotinylated CXCL12 on streptavidin chip
Protocol: as §1, §2

[5] = biological target: T1, biotinylated CXCL12 (synthesised 68 …); experiment: affinity constant for human CXCL12, Fab format; method not restated; comparison with WO 2008/018641; method not restated
[6] = biological target: T1, biotinylated CXCL12 (synthesised 68 …); experiment: SPR (Biacore T100), Fab over biotinylated CXCL12 immobilised on a streptavidin chip, 1:1 Langmuir binding model [panel B table]
Protocol: as §1, §2

[7] = biological target: T1, biotinylated CXCL12 (synthesised 68 …); experiment: SPR (Biacore T100): Fab over biotinylated CXCL12 on a streptavidin chip, two-state binding model; SPR, two-state binding model
Protocol: as §1, §2

[8] = biological target: T1, biotinylated CXCL12 (synthesised 68 …); experiment: SPR: Fab over biotinylated CXCL12 on a streptavidin chip, two-state binding model
Protocol: as §1, §2

[9] = biological target: T1, biotinylated CXCL12 (synthesised 68 …); experiment: SPR (Biacore T100), Fab over biotinylated CXCL12 immobilised on a streptavidin chip, two-state binding model [Continued) (panel C table]
Protocol: as §1, §2

[10] = biological target: T1, biotinylated CXCL12 (synthesised 68 …); experiment: SPR (Biacore T100), Fab over biotinylated CXCL12 immobilised on a streptavidin chip, two-state binding model [panel C table]
Protocol: as §1, §2

Chain of human CXCL12 (soluble ligand in the cell migration assays) (P48061 22-89 limits assumed): as above

B1: 114_3H1 IgG (human IgG2) (antibody, V domains shown)
VH: QVQLVQSGAEVKKPGASVKVSCKVSGYTLTELSMHWVRQAPGKGLEWMGGFDPEDGETIYAQKFQGRVTMTEDTSTDTAYMELSSLGSEDTAVYYCARRVWGSYRPNDAFDIWGQGTLVTVSS
VL: DIQMTQSPSSLSASVGDRVTITCRASQSISDYVNWYQQKPGKAPNLLMFAASTSQSGVPSRFTGSGSGTDFTLTISSLQPEDFATYFCQQSYSPPYTFGQGTKVEIKR
**Q.** How did the “IC50, transwell migration of TOV-21G cells towards CXCL12 (further replicate experiments)” value [1] turn out when B1 was run?
**A.** 5 nM

B2: 114_3H1 Fab (Fab, V domains shown)
VH: QVQLVQSGAEVKKPGASVKVSCKVSGYTLTELSMHWVRQAPGKGLEWMGGFDPEDGETIYAQKFQGRVTMTEDTSTDTAYMELSSLGSEDTAVYYCARRVWGSYRPNDAFDIWGQGTLVTVSS
VL: DIQMTQSPSSLSASVGDRVTITCRASQSISDYVNWYQQKPGKAPNLLMFAASTSQSGVPSRFTGSGSGTDFTLTISSLQPEDFATYFCQQSYSPPYTFGQGTKVEIKR
notes: Fab expressed from pBIOCAM-7 in HEK-293F cells, with hexa-histidine and tri-FLAG tags
**Q.** What does the source list for B2?
**A.** koff [2]: 0.00051 s⁻¹; fold improvement in affinity from its parent clone 093_2D06 [3]: 3800 fold; Kd [4]: 1 nM; Kd [5]: 2.4 nM; kon [6]: 490000 M⁻¹ s⁻¹

B3: 113_1H12 in a human IgG2 format (antibody, V domains shown)
VH: EVQLVQSGAEVKKPGASVKVSCKTSGYTFTNYGISWVRQAPGQGLEWMGWISAYNGNTNYAQKLQGRVTMTTDTSTSTAYMELRSLRSDDTAVYYCARAGGVYYDYFTDYWGQGTMVTVSS
VL: QSELTQPPSASGTPGQRVTISCSGSRSNIGSNSVNWYQQLPGTAPKLLIYNNDERPSGVPDRFSGSKSGTSASLAISGLQSEDEADYFCAAWDDSLNVGELFGGGTKLTVLG
**Q.** For B3, which “IC50, transwell migration of TOV-21G cells towards CXCL12 (further replicate experiments)” value [1] is on record?
**A.** 9 nM

B4: 113_1H12 Fab (Fab, V domains shown)
VH: EVQLVQSGAEVKKPGASVKVSCKTSGYTFTNYGISWVRQAPGQGLEWMGWISAYNGNTNYAQKLQGRVTMTTDTSTSTAYMELRSLRSDDTAVYYCARAGGVYYDYFTDYWGQGTMVTVSS
VL: QSELTQPPSASGTPGQRVTISCSGSRSNIGSNSVNWYQQLPGTAPKLLIYNNDERPSGVPDRFSGSKSGTSASLAISGLQSEDEADYFCAAWDDSLNVGELFGGGTKLTVLG
notes: as for B2
**Q.** B4 was tested. Which Kd [7] did it give?
**A.** 3.7 nM

**Q.** And the Kd [5]?
**A.** 4.2 nM

**Q.** And the “fold improvement in affinity following light chain shuffling (against its parent clone)” value [8]?
**A.** 4.5 fold

**Q.** And the “ka 2” value [9]?
**A.** 0.015 s⁻¹

**Q.** What about the “kd 2” value [9] of the same binder?
**A.** 0.00079 s⁻¹

**Q.** And the “ka 1” value [10]?
**A.** 510000 M⁻¹ s⁻¹

**Q.** And the “kd 1” value [10]?
**A.** 0.04 s⁻¹

Source: patent publication US20170362314A1 (CANCER RESEARCH TECHNOLOGY, published 2017)
